Results from patent US20120178124A1, “STEROL SIDE CHAIN-CLEAVING ENZYME PROTEIN AND USE THEREOF” (MITSUBISHI CHEMICAL CORPORATION, priority 2009, published 2012).

Key:
Assay type in all cases: biochemical
[1] = Kinetics analysis of CYP204A1 and CYPSS; details: 4-cholesten-3-one 100 μg/ml (so in the source)
[2] = Analysis of the optimum temperature, conversion of 4-cholesten-3-one by cell-free extract; details: for Specific activity: Tris-HCl pH 7.5, 4 hours, 4-cholesten-3-one to progesterone
Method: (§1) To 20 ml of the cell suspension prepared in (2) above, 680 μl of X10 Bug Buster (Novagen), 20 μl of Benzonase (Novagen), and 2 ml of 40 mg/ml lysozyme were added, and the obtained mixture was then shaken at 30° C. for 30 minutes to disintegrate the cells. Thereafter, the reaction solution was centrifuged to obtain the cell-free extract. The obtained, approximately 20 ml of cell-free extract was dialyzed against 1 L of Buffer R (20 mM KPB pH 7.4, 20% glycerol) two times, and the deposited precipitate was then removed by centrifugation. The cell-free extract obtained as a supernatant herein was used in the subsequent experiments.
Using the cell-free extract prepared in (3) above, conversion of 4-cholesten-3-one was carried out at […]. The reaction solution was prepared, such that 1 ml of the buffer comprised 215 pmol/ml CYP204A1 or 391 pmol/ml CYPSS, 64 μg/ml spinach-derived ferredoxin, 0.1 U/ml spinach-derived ferredoxin reductase protein, 3 U/ml glucose dehydrogenase, 60 mM glucose, 50 μg/ml 4-cholesten-3-one, 2 mM NADH, and 2 mM NADPH. Tris-HCl was added to the reaction solution so as to adjust it to pH 7.5. The reaction was initiated by addition of NADH and NADPH, and it was carried out at 200 rpm for 4 hours, under temperature conditions of 10° C., 15° C., 20° C., 25° C., or 30° C. Thereafter, 1.5 ml of ethyl acetate was added to the reaction solution to terminate the reaction, and extraction was carried out. Then, extraction was carried out again with 0.75 ml of ethyl acetate. The obtained ethyl acetate phase was solidified using evaporator, and the residue was then dissolved in 200 μl of methanol. Thereafter, progesterone was detected by HPLC analysis. The enzyme protein activity for conversion of 4-cholesten-3-one to progesterone under various temperature conditions is shown in Table 1.

[3] = pH stability test of cell-free extract; details: for Relative activity: 140 hr versus 0 hr, 6° C.; for Activity 0 hr: immediately after mixing, reaction 15° C., 4 hours, pH 7.5
Method: as §1
0.5 ml of the cell-free extract prepared in (3) above was mixed with 0.5 ml of 50 mM buffer having various pH values, pH was then measured, and the mixture was then conserved at 6° C. for 140 hours. […] Using the prepared cell-free extracts having various pH values, conversion of 4-cholesten-3-one was carried out. The reaction was carried out, immediately after the enzyme protein solution was mixed with buffers having various pH values and after the mixed solution was conserved for 140 hours, so as to examine the stability. The reaction solution was prepared, such that 1 ml of the buffer comprised an enzyme protein solution of CYP204A1 or CYPSS having various pH values, 64 μg/ml spinach-derived ferredoxin, 0.1 U/ml spinach-derived ferredoxin reductase protein, 3 U/ml glucose dehydrogenase, 60 mM glucose, 50 μg/ml 4-cholesten-3-one, 2 mM NADH, and 2 mM NADPH. To the reaction solution, 562 μl of 200 mM Tris-HCl was added, so as to adjust the reaction solution to pH 7.5. It was confirmed that the reaction solution maintained pH 7.5, even though enzyme protein solutions having various pH values were added thereto. The reaction was initiated by addition of NADH and NADPH, and it was carried out at 200 rpm at 15° C. for 4 hours. Thereafter, 1.5 ml of ethyl acetate was added to the reaction solution to terminate the reaction, and extraction was carried out. Then, extraction was carried out again with 0.75 ml of ethyl acetate. The obtained ethyl acetate phase was solidified using an evaporator, and the residue was then dissolved in 200 μl of methanol. Thereafter, progesterone was detected by HPLC analysis.

[4] = Thermostability test of cell-free extract; details: for Relative activity: 140 hr versus 0 hr
Method: as §1
The cell-free extract prepared in (3) above was conserved at various temperature for 140 hours. The conservation temperature was set at 6° C., 10° C., 20° C., 30° C., 37° C., or 45° C. Using the enzyme protein solution before conservation and the sample obtained after conservation for 140 hours, conversion of 4-cholesten-3-one was carried out, and stability was examined. The reaction solution was prepared, such that 1 ml of the buffer comprised an enzyme protein solution of CYP204A1 or CYPSS that had been conserved at each temperature, 64 μg/ml spinach-derived ferredoxin, 0.1 U/ml spinach-derived ferredoxin reductase protein, 3 U/ml glucose dehydrogenase, 60 mM glucose, 50 μg/ml 4-cholesten-3-one, 2 mM NADH, and 2 mM NADPH. The reaction was initiated by addition of NADH and NADPH, and it was carried out at 200 rpm at 15° C. for 4 hours. Thereafter, 1.5 ml of ethyl acetate was added to the reaction solution to terminate the reaction, and extraction was carried out. Then, extraction was carried out again with 0.75 ml of ethyl acetate. The obtained ethyl acetate phase was solidified using an evaporator, and the residue was then dissolved in 200 μl of methanol. Thereafter, progesterone was detected by HPLC analysis. […] In particular, when the cell-free extract was conversed at 20° C. for 140 hours, CYP204A1 maintained 47% of its activity and CYPSS maintained 39% of its activity.

B1: Sphingomonas subterranea NBRC16086 P450scc CYPSS204A (CYPSS), wild type, SEQ ID NO: 2 (Novosphingobium subterraneum) (protein)
chain: MASAAAGADGLPLLDGGVPLLGHLAQFFRDPVSVLKRGYRSKGRLFAMNFMGQRMNVMLGPEHNRFFFEETDKLLSIRESMPFFLKMFSPEFYSFAEMDEYLRQRAIIMPRFKAASMKQYVPVMVEESLNLVERLGEEGEFDLIPTLGPVVMDIAAHSFMGREFHEKLGHEFFELFRDFSGGMEFVLPLWLPTPKMVKSQRAKKKLHAILQSWIDKRRASPLDPPDFFQTMIETKYPDGRAVPDEIIRHLILLLVWAGHETTAGQVSWALADLLQNPGYQQVLREEVASLLGGSDGRALGWEQAVAMEKMDLALRETERLHPVAYMLSRKASADIERDGYRIRKGEFVLLAPSVSHRMEETFRNADAYDPERFNPQNPDAQIESNSLIGFGGGVHRCAGVNFARMEMKVLVAILLQNFDMELIDEVRPIAGASTYWPAQPCRVRYKRRKLDGAGGSADVAALAKAAGCPAHA
enzyme protein activity in comparison with that at 10 μM 4-cholesten-3-one [1]: 90% | Specific activity ([2]; 10° C.): 918 g/h/mol | Specific activity ([2]; 15° C.): 1279 g/h/mol | Specific activity ([2]; 20° C.): 1133 g/h/mol | Specific activity ([2]; 25° C.): 936 g/h/mol | Specific activity ([2]; 30° C.): 465 g/h/mol | optimum temperature for action (temperature of highest activity) ([2]; conversion of 4-cholesten-3-one to progesterone, pH 7.5): 15 °C | Relative activity ([3]; AcB pH 6.0): 37% | Activity 140 hr ([3]; AcB pH 6.0, conserved at 6° C. for 140 hours): 2.7 µg/mL | Activity 0 hr ([3]; AcB pH 6.0): 7.3 µg/mL | Relative activity ([3]; KPB pH 6.7): 61% | Activity 140 hr ([3]; KPB pH 6.7, conserved at 6° C. for 140 hours): 4.3 µg/mL | Activity 0 hr ([3]; KPB pH 6.7): 7.1 µg/mL | Relative activity ([3]; KPB pH 7.2): 73% | Activity 140 hr ([3]; KPB pH 7.2, conserved at 6° C. for 140 hours): 5.3 µg/mL | Activity 0 hr ([3]; KPB pH 7.2): 7.3 µg/mL | Relative activity ([3]; KPB pH 7.6): 85% | Activity 140 hr ([3]; KPB pH 7.6, conserved at 6° C. for 140 hours): 5.5 µg/mL | Activity 0 hr ([3]; KPB pH 7.6): 6.5 µg/mL | pH at which most stable ([3]; KPB, conserved at 6° C. for 140 hours): 7.6 | Relative activity ([3]; TES pH 7.5): 71% | Activity 140 hr ([3]; TES pH 7.5, conserved at 6° C. for 140 hours): 5.2 µg/mL | Activity 0 hr ([3]; TES pH 7.5): 7.3 µg/mL | Relative activity ([3]; Tris pH 7.4): 63% | Activity 140 hr ([3]; Tris pH 7.4, conserved at 6° C. for 140 hours): 5 µg/mL | Activity 0 hr ([3]; Tris pH 7.4): 8 µg/mL | Relative activity ([3]; Tris pH 8.1): 65% | Activity 140 hr ([3]; Tris pH 8.1, conserved at 6° C. for 140 hours): 4.5 µg/mL | Activity 0 hr ([3]; Tris pH 8.1): 6.9 µg/mL | Relative activity ([3]; Tris pH 8.9): 51% | Activity 140 hr ([3]; Tris pH 8.9, conserved at 6° C. for 140 hours): 3.7 µg/mL | Activity 0 hr ([3]; Tris pH 8.9): 7.3 µg/mL | Activity 140 hr ([4]; conserved at 6° C. for 140 hours): 11.6 µg/mL | Relative activity ([4]; conserved at 6° C.): 81% | Activity 140 hr ([4]; conserved at 10° C. for 140 hours): 10.5 µg/mL | Relative activity ([4]; conserved at 10° C.): 73% | Activity 140 hr ([4]; conserved at 20° C. for 140 hours): 5.6 µg/mL | Activity 140 hr ([4]; conserved at 30° C. for 140 hours): 1 µg/mL | Relative activity ([4]; conserved at 30° C.): 7% | Activity 140 hr ([4]; conserved at 37° C. for 140 hours): 0 µg/mL | Relative activity ([4]; conserved at 37° C.): 0% | Activity 140 hr ([4]; conserved at 45° C. for 140 hours): 0 µg/mL | Relative activity ([4]; conserved at 45° C.): 0% | Activity 0 hr ([4]; enzyme protein solution before conservation, reaction 15° C., 4 hours): 14.4 µg/mL
